Test results taken from patent US8299213B2, “Synthetic or natural peptides binding protein phosphatase 2A, identification method and uses” (Universite Pierre et Marie Curie (Paris 6), priority 2001, dated 2012).
Entries after “also recorded” stand apart in the source; their conditions may differ.

Key:
Hela cells [1] = test: Cell viability test (MTT); assay type: cell-based, human; conditions: 72 h, increasing peptide concentrations (FIG. 4)
Experimental: Hela cells (10^4 for 100 μl) were seeded into 96-well plates (flat bases) with complete DMEM medium containing 2.5% penicillin/ampicillin and 10% foetal calf serum. After incubating overnight at 37° C. in a CO2 oven (5%), the cells were cultivated in the presence of different peptide concentrations. After incubating for 72 h, the medium containing the peptides was aspirated and the MTT at 0.5 mg/ml (diluted in DMEM alone) was added in an amount of 100 μl per well. Incubation was carried out in the dark at 37° C. for 30 minutes then the MTT was aspirated off and 50 μl of DMSO was added to all wells. It was necessary to wait ten minutes for complete lysis of the cells and to agitate the lysate well to homogenize dissolution of the reaction product in the wells. The plates were then read at 570 nm with a 690 nm reference filter.

Hela cells [2] = test: Cell penetration test (biotinylated peptide-avidine peroxidase complexes); assay type: cell-based, human; conditions: biotinylated peptides, 4 hours incubation (FIG. 3)
Experimental: We analyzed the Hela line, which is derived from a human cervical carcinoma.
0.1 M Tris buffer, pH 8 containing 0.5% NP40.
25.7 ml of 0.2 M dibasic sodium phosphate+24.3 ml of 0.1 M citric acid+50 ml distilled water; adjust to pH 5.0.
4 moles of peptides were incubated with 1 mole of avidine-peroxidase. 20 minutes at ambient temperature.
Hela cells (10^4 in […]) were seeded into 96-well plates (flat bases) with complete DMEM medium in the presence of 2.5% penicillin/ampicillin and 10% foetal calf serum. After incubating overnight at 37° C. in a CO2 oven (5%), different dilutions of complexes (biotinylated-avidine peroxidase peptides) were added. After incubating for 4 hours the supernatant was aspirated and the cells were washed 3 times with PBS, trypsinated and taken up for counting in PBS. After counting, the cells were taken up in 300 μl of lysis buffer.
50 μl of OPD buffer was incubated in a 96 well ELISA plate with 50 μl of lysis buffer or 50 μl of cell lysate (in general, different successive dilutions were carried out (to ½)). In order to reveal, 50 μl of OPD solution was added (in the dark). The reaction (about 10 min) was stopped with 100 μl of 1N HCl.
The peroxidase activity was determined by reading at 490 nm in the ELISA reader (reference filter at 620 nm) and the quantity of peroxidase in the lysates was calculated from the calibration curve then extrapolated to the same number of cells (10^3 or 10^4): Peptide molecules=(6*10^23/MW of peptide)*ng of PO*10^−9. A.4. Cell Viability Test

subunit A of PP2A = biological target: T1, subunit A of PP2A (Homo sapiens, UniProt P30153); test: SPOT peptide membrane screened with structural subunit A of PP2A; assay type: binding; conditions: peptides on cellulose membrane, 4 μg/ml purified protein, antibody against protein A (FIGS. 1A, 2A)
T1 construct: made in house; host or cells: E. coli
T1 sequence (P30153 whole entry): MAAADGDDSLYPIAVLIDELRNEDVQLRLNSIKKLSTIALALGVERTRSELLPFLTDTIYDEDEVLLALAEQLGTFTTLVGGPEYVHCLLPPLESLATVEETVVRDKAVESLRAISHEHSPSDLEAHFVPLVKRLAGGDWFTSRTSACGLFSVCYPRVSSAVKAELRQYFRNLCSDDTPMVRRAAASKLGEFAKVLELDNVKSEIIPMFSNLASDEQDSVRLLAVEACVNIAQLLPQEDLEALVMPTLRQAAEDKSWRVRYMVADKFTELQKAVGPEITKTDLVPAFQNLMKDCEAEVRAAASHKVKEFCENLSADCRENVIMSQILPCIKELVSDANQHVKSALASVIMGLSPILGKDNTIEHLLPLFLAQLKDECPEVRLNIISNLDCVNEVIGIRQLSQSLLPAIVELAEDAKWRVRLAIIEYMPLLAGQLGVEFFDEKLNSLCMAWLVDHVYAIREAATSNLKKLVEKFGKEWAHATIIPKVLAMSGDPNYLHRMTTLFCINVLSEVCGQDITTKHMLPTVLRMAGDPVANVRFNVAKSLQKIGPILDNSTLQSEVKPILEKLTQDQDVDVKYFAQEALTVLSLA
Text: A recombinant structural subunit of PP2A was expressed in E. coli and purified using the protocol described by Cohen et al (Cohen P, Alemany S, Hemmings B A, Resink T J, Stralfors P, Tung H Y. Protein phosphatase-1 and protein phosphatase 2A from rabbit skeletal muscle. Methods Enzymol 1988 159, 390-408), or that described by Bosch et al (Bosch M, Cayla X, Van Hoof C, Hemmings B A, Ozon R, Merlevede W, Goris J. the PR55 and PR65 subunits of protein phosphatase 2A from Xenopus laevis. Molecular cloning and developmental regulation of expression. Eur J Biochem 1995, 230, 1037-45).
(§1) Binding peptides derived from CK2α proteins (encoded by T parva protozoa) or Vpr protein (encoded by the HIV-1 virus) with PP2A were identified using the “spot peptides” technique described above (Frank and Overwing, 1996, Meth Mol Biol 66, 149-169).
(§2) The method consisted of synthesizing dodecapeptides, in situ on a cellulose membrane, at defined positions wherein the series of the sequence covered the whole sequence of the protein of interest (Vpr or CK2α). The peptides of two consecutive spots on the membrane overlap with an overlapped by two amino acids.
(§3) Sixty-eight (68) dodecapeptides covering the whole sequence of the Vpr protein of HIV-1 and two hundred and five (205) dodecapeptides covering the sequence for the CK2α protein of Theileria were synthesized and covalently bound to cellulose membranes.
(§4) Each prepared membrane was first saturated for 1 hour at ambient temperature with TBS containing 5% skimmed Régilait (milk) and 3% BSA then incubated overnight in the same buffer in the presence of 4 μg/ml of purified protein (subunit A of PP2A or holoenzyme PP2A1).
(§5) The membranes were washed 5 times for 15 minutes with a conventional TBST buffer (TBS+TWEEN) used for incubation then incubated a further 1 hour at ambient temperature with a second antibody (coupled with peroxidase).

holoenzyme PP2A1 = biological target: T2, holoenzyme PP2A1 (Sus scrofa, UniProt P54612); test: SPOT peptide membrane screened with holoenzyme PP2A1; assay type: binding, pig; conditions: for binding to the trimeric holoenzyme PP2A1: peptides on cellulose membrane, 4 μg/ml purified protein, antibodies against proteins A, B and C (FIGS. 1B, 2B)
T2 construct: Trimeric PP2A1 protein was purified to homogeneity from pig brain; from tissue; host or cells: pig brain
T2 sequence (P54612 whole entry): as the sequence (P30153 whole entry) above, with S324T counted along it
T2 sequence (P67776 whole entry partner): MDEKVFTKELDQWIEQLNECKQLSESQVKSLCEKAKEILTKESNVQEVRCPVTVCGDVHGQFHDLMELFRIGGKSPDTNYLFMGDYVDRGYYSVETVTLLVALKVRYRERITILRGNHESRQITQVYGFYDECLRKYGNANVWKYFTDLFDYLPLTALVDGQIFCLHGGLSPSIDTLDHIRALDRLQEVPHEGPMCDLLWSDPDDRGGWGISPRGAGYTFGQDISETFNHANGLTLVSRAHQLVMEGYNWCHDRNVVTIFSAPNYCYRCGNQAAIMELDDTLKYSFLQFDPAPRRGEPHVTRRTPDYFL
Text: Trimeric PP2A1 protein was purified to homogeneity from pig brain.
as §1, §2, §3, §4, §5

Row | Substance | intracellular penetration into Hela cells (Hela cells [2]) | binding to the structural subunit A of PP2A (subunit A of PP2A) | also measured
1 | (AHSRIG)3 (AHSRIGAHSRIGAHSRIG; listed as Theileria parva) [FD12] |  |  | effect on viability of Hela cells (Hela cells [1]): affects the viability of the Hela cell
2 | (RHSRIG)3 (RHSRIGRHSRIGRHSRIG; listed as Theileria parva) [FD11] | possibility of penetrating into the Hela cell |  | 
3 | (RQKRLI)3 (RQKRLIRQKRLIRQKRLI; listed as Theileria parva) [FD7] | possibility of penetrating into the Hela cell |  | 
4 | ALIRILQQLLFI (Human immunodeficiency virus) [SEQ ID No: 7] |  | binding the subunit A of PP2A | 
5 | IGIIQQRRTRNG (Human immunodeficiency virus) [SEQ ID No: 12] |  | binding the subunit A of PP2A | 
6 | ILQQLLFIHFRI (Human immunodeficiency virus) [SEQ ID No: 9] |  | binding the subunit A of PP2A | 
7 | IRILQQLLFIHF (Human immunodeficiency virus) [SEQ ID No: 8] |  | binding the subunit A of PP2A | 
8 | KILRLIDWGLAEFYHP (listed as Theileria parva) [T parva CK2α site 3] |  | containing a binding site | binding to the trimeric holoenzyme PP2A1 (holoenzyme PP2A1): containing a binding site
9 | LIDWGLAEFYHP (listed as Theileria parva) [peptide 131] |  |  | binding PP2A (holoenzyme PP2A1; FIG. 2, subunit A or holoenzyme not given): capable of binding PP2A
10 | RHSRIGIIQQRR (Human immunodeficiency virus) [SEQ ID No: 10] |  | binding the subunit A of PP2A | 
11 | RHSRIGIIQQRRTRNG [FD14] | possibility of penetrating into the Hela cell; also recorded: penetrating peptides | containing a binding site | binding to the trimeric holoenzyme PP2A1 (holoenzyme PP2A1): containing a binding site; effect on viability of Hela cells (Hela cells [1]): clearly affects the viability of Hela cells
12 | RHSRIGVTRQRRARNG [FD13] | possibility of penetrating into the Hela cell |  | effect on viability of Hela cells (Hela cells [1]): absence of the biological effect
13 | RKIGRGKFSEVFEG (listed as Theileria parva) [T parva CK2α site 1] |  | containing a binding site | 
14 | RRRRRRRSRGRRRRTY (listed as Theileria parva) [FD8, peptide derived from protamine] | possibility of penetrating into the Hela cell; also recorded: penetrating peptides |  | effect on viability of Hela cells (Hela cells [1]): affects the viability of Hela cells
15 | SRIGIIQQRRTR (Human immunodeficiency virus) [SEQ ID No: 11] |  | binding the subunit A of PP2A | 
16 | TVTKDKCVIKILKPVKKKKIKREIKILQNL (listed as Theileria parva) [T parva CK2α site 2] |  | containing a binding site | 
17 | VEALIRILQQLL [SEQ ID No: 6] |  | binding the subunit A of PP2A | 
18 | VEALIRILQQLLFIHFRI [HIV-1 Vpr site 2] |  | containing a binding site | 
19 | VKKKKIKREIKI (listed as Theileria parva) [FD6] | possibility of penetrating into the Hela cell |  | effect on viability of Hela cells (Hela cells [1]): does not affect the viability
